Assay results reported in FireProtDB (doi:10.1002/prot.340230110).

Details: Escherichia coli; pH 6; 25 °C; Thermal; DSC; Sodium phosphate/Sodium sulfate 10 mM/10 mM/; reversible: yes; whole UniProt chain shown

B1: Regulatory protein rop wild type, P03051 (protein)
chain: MTKQEKTALNMARFIRSQTLTLLEKLNELDADEQADICESLHDHADELYRSCLARFGDDGENL
For B1, the “heat capacity change of unfolding” value was 2.46 kcal/mol/K and the unfolding free energy was 17.1 kcal/mol.
